Reference: US9028824 (dated 2015)
Read-outs that look alike come from different tables or passages of the source.

What was measured:
[1] = target: T1, murine OX40R ECD fusion (mouse, UniProt P47741); assay: ELISA
T1 chain: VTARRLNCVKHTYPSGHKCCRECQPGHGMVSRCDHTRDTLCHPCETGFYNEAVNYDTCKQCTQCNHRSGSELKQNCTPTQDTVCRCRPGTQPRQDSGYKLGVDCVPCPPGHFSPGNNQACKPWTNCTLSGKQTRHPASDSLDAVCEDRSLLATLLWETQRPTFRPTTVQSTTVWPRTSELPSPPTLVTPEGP

[2] = target: T2, human OX40R extracellular domain fusion protein (CD134-muIg) (human, UniProt P43489); assay: SPR
T2 chain: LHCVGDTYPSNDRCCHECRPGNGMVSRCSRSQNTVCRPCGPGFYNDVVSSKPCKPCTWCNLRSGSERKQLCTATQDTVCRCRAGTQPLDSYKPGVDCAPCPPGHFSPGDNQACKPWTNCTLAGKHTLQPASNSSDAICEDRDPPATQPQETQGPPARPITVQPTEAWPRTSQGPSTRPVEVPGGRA

[3] = target: T3, human OX40R on cells (human, UniProt P43489); assay: FACS, human T cells
T3 chain: T2 chain

[4] = target: T4, CD137 (4-1BB) ECD-IgG1 fusion (human, UniProt Q07011); assay: other, up to 700 nM
T4 sequence (Q07011 24-186): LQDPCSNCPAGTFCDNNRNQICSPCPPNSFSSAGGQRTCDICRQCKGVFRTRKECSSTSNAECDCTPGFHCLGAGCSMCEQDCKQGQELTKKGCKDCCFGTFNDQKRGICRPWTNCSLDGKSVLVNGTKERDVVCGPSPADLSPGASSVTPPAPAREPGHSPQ

[5] = target: T5, CD40 ECD-IgG1 fusion (human, UniProt P25942); assay: other, up to 700 nM
T5 sequence (P25942 21-193): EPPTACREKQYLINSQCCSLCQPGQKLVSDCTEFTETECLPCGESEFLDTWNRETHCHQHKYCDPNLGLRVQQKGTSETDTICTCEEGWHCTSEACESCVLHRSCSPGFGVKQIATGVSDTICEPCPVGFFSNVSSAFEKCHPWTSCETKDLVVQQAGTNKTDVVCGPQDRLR

[6] = target: T3, human OX40R on cells; assay: FACS, CD3/CD28 stimulated T cells
[7] = target: T3, human OX40R on cells; assay: FACS, OX40R+ 300-19 cells
[8] = target: T2, human OX40R extracellular domain fusion …; assay: ELISA
[9] = target: T6, CD271 (NGF receptor) ECD-IgG1 fusion (human, UniProt P08138); assay: other, up to 700 nM
T6 chain: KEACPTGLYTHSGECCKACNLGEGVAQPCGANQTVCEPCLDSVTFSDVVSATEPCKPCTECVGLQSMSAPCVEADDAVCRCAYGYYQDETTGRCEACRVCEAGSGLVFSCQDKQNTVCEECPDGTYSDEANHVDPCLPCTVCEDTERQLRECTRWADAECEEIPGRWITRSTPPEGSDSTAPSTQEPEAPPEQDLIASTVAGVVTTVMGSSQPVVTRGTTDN

[10] = target: T6, CD271 (NGF receptor) ECD-IgG1 fusion; assay: other, up to 700 nM
[11] = target: T5, CD40 ECD-IgG1 fusion; assay: other, up to 700 nM; remark: listed apart in the source
[12] = target: T4, CD137 (4-1BB) ECD-IgG1 fusion; assay: other, up to 700 nM; remark: listed apart in the source

B1: 11D4 (antibody, V domains shown)
VH: EVQLVESGGGLVQPGGSLRLSCAASGFTFSSYSMNWVRQAPGKGLEWVSYISSSSSTIDYADSVKGRFTISRDNAKNSLYLQMNSLRDEDTAVYYCARESGWYLFDYWGQGTLVTVSS
VL: DIQMTQSPSSLSASVGDRVTITCRASQGISSWLAWYQQKPEKAPKSLIYAASSLQSGVPSRFSGSGSGTDFTLTISSLQPEDFATYYCQQYNSYPPTFGGGTKVEIK
For B1, the binding result [1] was “no binding”, the Kd [2] was 0.48 nM and the EC50 [3] was 0.566 µg/mL. The binding result [4] was “no binding”, the binding result [5] was “no binding” and the EC50 [6] was 4 nM. The EC50 [7] was 1.7 nM, the EC50 [8] was 3.5 nM and the binding result [9] was “no binding”.

B2: 18D8 (antibody, V domains shown)
VH: EVQLVESGGGLVQPGRSLRLSCAASGFTFDDYAMHWVRQAPGKGLEWVSGISWNSGSIGYADSVKGRFTISRDNAKNSLYLQMNSLRAEDTALYYCAKDQSTADYYFYYGMDVWGQGTTVTVSS
VL: EIVVTQSPATLSLSPGERATLSCRASQSVSSYLAWYQQKPGQAPRLLIYDASNRATGIPARFSGSGSGTDFTLTISSLEPEDFAVYYCQQRSNWPTFGQGTKVEIK
B2: no binding [10]; no binding [11]; no binding [12].
